{"source": "patent US20250170267A1", "about": "“ANTIBODY-DRUG CONJUGATE PRECURSOR AND INTERMEDIATE FOR SYNTHESIS THEREOF” (UBE Corporation, priority 2022, published 2025)", "key": {"[1]": {"tested_on": "human liver lysosome", "assay": "Metabolism test using human liver lysosomal fraction", "assay_type": "in vitro ADME", "conditions": "37° C., 24 hours, released drug, LC-MS/MS", "description": "To a reaction composition solution (X10 Catabolic Buffer (manufactured by SEKISUI-Xenotech, LLC., K5200))(60 μL) in which human liver lysosome (manufactured by SEKISUI-Xenotech, LLC., Cat No. H610.L 2.5 mg/mL)(corresponding to 0.125 mg of protein) was suspended and distilled water (manufactured by FUJIFILM Wako Pure Chemical Corporation, for HPLC)(10 μL) was added 1.2 μM test compound (antibody-drug conjugate produced in ADC Production examples)(25 μL) dissolved in PBS to prepare a reaction solution. After the reaction solution was incubated at 37° C. for 24 hours, “an antitumor drug molecule or an analog thereof, or a derivative thereof” released from the antibody-drug conjugate into the reaction solution was quantified by LC-MS/MS (high performance liquid chromatography/mass spectrometer system) under the following conditions. LC-MS/MS analysis conditions\n(§1) LC: LC20 or LC30 HPLC system manufactured by Shimadzu Corporation\n(§2) Column: Phenomenex Kinetex C18 (50×2.1 mm, 2.6 μm)\n(§3) Column temperature: 40° C.\n(§4) Mobile phase A: 0.1% aqueous solution of formic acid, Mobile phase B: 0.1% solution of formic acid in a mixture of 50% acetonitrile/methanol\n(§5) Mode: Positive or Negative\n(§6) The release rate (%) of drug was calculated by the following equation."}, "[2]": {"target": "T1, human liver Cathepsin B (Homo sapiens, UniProt P07858)", "T1 construct": "human liver Cathepsin B (manufactured by Sigma-Aldrich Co. LLC, Cat No. C8571 25 μg/vial); purchased Sigma-Aldrich Co. LLC C8571; host or cells: human liver", "assay": "Metabolism test using human liver Cathepsin B", "assay_type": "in vitro ADME", "conditions": "37° C., 24 hours, released drug, LC-MS/MS", "description": "To human liver Cathepsin B (manufactured by Sigma-Aldrich Co. LLC, Cat No. C8571 25 μg/vial)(corresponding to 400 Unit/mL)(5 μL), X10 Catabolic Buffer (manufactured by SEKISUI-Xenotech, LLC., K5200)(10 μL), 2.5 mM Bovine Serum Albumin (manufactured by FUJIFILM Wako Pure Chemical Corporation, Cat No. 012-15093)(5 μL), and distilled water (manufactured by FUJIFILM Wako Pure Chemical Corporation, for HPLC)(55 μL) was added 1.2 μM test compound (antibody-drug conjugate prepared in ADC Production examples)(25 μL) dissolved in PBS to prepare a reaction solution. After the reaction solution was incubated at 37° C. for 24 hours, “an antitumor drug molecule or an analog thereof, or a derivative thereof” released from the antibody-drug conjugate into the reaction solution was quantified by LC-MS/MS (high performance liquid chromatography/mass spectrometer system) under the following conditions. LC-MS/MS analysis conditions\nas §1, §2, §3, §4, §5, §6"}, "[3]": {"assay": "Pharmacokinetic test (serum trastuzumab residual rate)", "assay_type": "in vivo", "conditions": "female BALB/c mouse, intravenous; 3 days vs 5 minutes after administration", "description": "After a prescribed time period, the blood was collected from the jugular vein or abdominal vein, and centrifuged to prepare a serum. The resulting serum was cryopreserved until the measurement."}, "[4]": {"assay": "Retention time in HPLC (index of hydrophilicity)", "assay_type": "physicochemical", "conditions": "BEH C18, 0.1% formic acid/acetonitrile gradient, 40° C.", "description": "As an index of hydrophilicity of the Examples, the retention time (RT) in HPLC analysis was measured, and compared.\nDevice: LCMS2020 system Shimadzu Corporation\nColumn: Acquity UPLC (registered trademark) BEH C18 (2.1×50 mm, 1.7 μm)_Waters\nEluent: Solution A: 0.1% aqueous solution of formic acid, Solution B: 0.1% solution of formic acid in acetonitrile"}}, "note": "Numbered stars: 1 amine (or outer) side, 2 acyl side, 3 side chain; on linkers, the order of the positions; unused ones are H or OH. Square brackets hold non-standard residues; d marks the D form. Peptide text beside a SMILES is read from it. * marks the point of attachment. Dolaproine = CO[C@@H]([C@@H]1CCCN1)[C@@H](C)C(=O)O; Propanoyl(3-maleimido) = O=C1C=CC(=O)N1CCC(=O)*; Dil = CC[C@H](C)[C@H](NC)[C@@H](CC(=O)O)OC; PABC = O=C(OCc1ccc(N[*:1])cc1)[*:2]; X1 = C[C@@H](N*)[C@@H](O)c1ccccc1; hSer(lactone) = O=C1OCC[C@@H]1N*; Cit = NC(=O)NCCC[C@H](N)C(=O)O; PEG4 = NCCOCCOCCOCCOCCC(=O)O; NMeV = CN[C@H](C(=O)O)C(C)C", "data": [{"smiles": "C=C1C[C@@H]2CC[C@@]34C[C@H]5O[C@H]6[C@@H](O3)[C@H]3O[C@H](CC[C@@H]3O[C@H]6[C@H]5O4)CC(=O)C[C@@H]3[C@@H](OC)[C@@H](C[C@H](O)CNC(=O)OCc4ccc(NC(=O)[C@H](CCCNC(N)=O)NC(=O)[C@@H](NC(=O)[C@H](CC(=O)N[C@H]5CCOC5=O)NC(=O)[C@H](CCCCN(C)C)NC(=O)CCOCCOCCOCCOCCNC(=O)[C@H](CNC(=O)CCP(=O)(O)O)N5C(=O)C=CC5=O)C(C)C)cc4)O[C@H]3C[C@H]3O[C@@H](CC[C@@H]1O2)C[C@@H](C)C3=C", "note": "[Example 18]", "values": [{"measurement": "Release rate (%) of drug from ADC", "setting": "[1]", "result": 75, "unit": "%"}, {"measurement": "Release rate (%) of drug from ADC", "setting": "[2]", "result": 64, "unit": "%"}, {"measurement": "Serum trastuzumab residual rate after 3 days from administration (%)", "setting": "[3]", "result": 73, "unit": "%"}, {"measurement": "Retention time in HPLC measurement", "setting": "[4]; Table 6 (eribulin precursors)", "result": 0.96, "unit": "min"}]}, {"smiles": "CC[C@H](C)[C@@H]([C@@H](CC(=O)N1CCC[C@H]1[C@H](OC)[C@@H](C)C(=O)N[C@H](C)[C@@H](O)c1ccccc1)OC)N(C)C(=O)[C@@H](NC(=O)[C@H](C(C)C)N(C)C(=O)OCc1ccc(NC(=O)[C@H](CCCNC(N)=O)NC(=O)[C@@H](NC(=O)[C@H](CC(=O)N[C@H]2CCOC2=O)NC(=O)CCOCCOCCOCCOCCNC(=O)CCN2C(=O)C=CC2=O)C(C)C)cc1)C(C)C", "note": "[Example 1] ({Propanoyl(3-maleimido)-PEG4}-D(hSer(lactone))V[Cit][PABC][NMeV]V[Dil][Dolaproine]-X1)", "values": [{"measurement": "Release rate (%) of drug from ADC", "setting": "[1]", "result": 68, "unit": "%"}, {"measurement": "Release rate (%) of drug from ADC", "setting": "[2]", "result": 71, "unit": "%"}, {"measurement": "Serum trastuzumab residual rate after 3 days from administration (%)", "setting": "[3]", "result": 35, "unit": "%"}, {"measurement": "Retention time in HPLC measurement", "setting": "[4]; Table 5 (MMAE-type precursors)", "result": 1.12, "unit": "min"}]}, {"smiles": "C=C1C[C@@H]2CC[C@@]34C[C@H]5O[C@H]6[C@@H](O3)[C@H]3O[C@H](CC[C@@H]3O[C@H]6[C@H]5O4)CC(=O)C[C@@H]3[C@@H](OC)[C@@H](C[C@H](O)CNC(=O)OCc4ccc(NC(=O)[C@H](CCCNC(N)=O)NC(=O)[C@@H](NC(=O)[C@H](CC(=O)N[C@H]5CCOC5=O)NC(=O)CN(C)CCNC(=O)CCOCCOCCOCCOCCNC(=O)[C@H](CNC(=O)CCP(=O)(O)O)N5C(=O)C=CC5=O)C(C)C)cc4)O[C@H]3C[C@H]3O[C@@H](CC[C@@H]1O2)C[C@@H](C)C3=C", "note": "[Example 16]", "values": [{"measurement": "Release rate (%) of drug from ADC", "setting": "[1]", "result": 72, "unit": "%"}, {"measurement": "Release rate (%) of drug from ADC", "setting": "[2]", "result": 62, "unit": "%"}, {"measurement": "Serum trastuzumab residual rate after 3 days from administration (%)", "setting": "[3]", "result": 64, "unit": "%"}, {"measurement": "Retention time in HPLC measurement", "setting": "[4]; Table 6 (eribulin precursors)", "result": 0.97, "unit": "min"}]}]}
